Test results taken from patent US8697369B2, “Method for screening a test substance for activating a receptor associated with FGF 21 activity” (National Institute of Advanced Industrial Science and …, priority 2007, dated 2014).
Entries after “also recorded” stand apart in the source; their conditions may differ.

B1: FGF21: fibroblast growth factor 21; mouse-derived protein used in Examples 1-7 and 10-13 (protein)
chain: AYPIPDSSPLLQFGGQVRQRYLYTDDDQDTEAHLEIREDGTVVGAAHRSPESLLELKALKPGVIQILGVKASRFLCQQPDGALYGSPHFDPEACSFRELLLEDGYNVYQSEAHGLPLRLPQKDSPNQDATSWGPVRFLPMPGLLHEPQDQAGFLPPEPPDVGSSDPLSMVEPLQGRSPSYAS

Columns and labels:
Type in all cases: cell-based
[1] = biological target: T1, FGFR1c/betaKlotho-expressing BaF3 cells (Mus musculus, UniProt P16092+Q99N32); experiment: DNA synthesis (thymidine incorporation) in FGFR1c/betaKlotho-expressing BaF3 cells; conditions: BaF3 cells expressing FGFR1c and betaKlotho; presence or absence of heparin
T1 construct: the entire-length cDNA of mouse FGFR1c had been cloned; the entire-length cDNA of mouse betaKlotho was cloned into an animal cell expression vector; expressed in transfected cells; host or cells: BaF3 (mouse pro-B) cells
Description: (§1) A commonly used measurement method is a cell growth stimulating activity measurement method described in Ornitz, D. M., Xu, J., Colvin, J. S., McEwen, D. G., MacArthur, C. A., Coulier, F., Gao, G. and Goldfarb, M. (1996) Receptor specificity of the fibroblast growth factor family. J Biol Chem, 271, 15292-15297. The summary thereof is as follows. FGF used as a measurement target is added to a culture solution containing a cultured cell having an FGF receptor on the surface thereof, and the obtained mixture is cultured for a certain period of time. Thereafter, a labeled thymidine is added to the culture solution, followed by further culture for a certain period of time. By measuring the amount of the labeled thymidine incorporated into polymeric DNA during the culture, the degree of FGF to activate DNA synthesis is evaluated. (In the present invention as well, this method was adopted when the activity of FGF21 was measured in Examples 4, 5, 6, 8, 9, and 10.)
FGFR1c-expressing BaF3 cells and FGFR1c- and betaKlotho-expressing BaF3 cells were prepared as follows. In the case of FGFR1c-expressing BaF3 cells, an animal cell expression vector into which the entire-length cDNA of mouse FGFR1c had been cloned (described in Ornitz, D. M., Xu, J., Colvin, J. S., McEwen, D. G., MacArthur, C. A., Coulier, F., Gao, G. and Goldfarb, M. (1996) Receptor specificity of the fibroblast growth factor family. J Biol Chem, 271, 15292-15297.) was introduced into BaF3 cells by an electroporation method. The cells were then cultured in the presence of G418 for approximately 2 weeks, so as to obtain drug-resistant clones. Thereafter, such clones were obtained as those capable of growing as a result of FGF1 stimulation. In the case of both FGFR1c- and betaKlotho-expressing BaF3 cells, the entire-length cDNA of mouse betaKlotho was cloned into an animal cell expression vector, and it was then introduced into the FGFR1c-expressing BaF3 cells. The cells were then cultured in the presence of Puromycin and G418 for approximately 2 weeks, so as to obtain drug-resistant clones. In the case of only betaKlotho-expressing BaF3 cells, a betaKlotho-expressing vector was introduced into BaF3 cells, and Puromycin-resistant clones were then obtained. The BaF3 cells, into which the aforementioned genes had been each introduced, were maintained in an RPMI1640 medium containing 10% FBS and interleukin 3 (IL3, supplied by adding a 5% condition medium of WEHI-3 cells). For the growth stimulation experiment, the cells were washed with an RPMI1640 medium, and they were then suspended in an RPMI1640 medium containing 10% FBS, followed by inoculating the suspension on a culture plate. Thereafter, the resultant cells were used.
Immediately after inoculation, BaF3 cells that had expressed each clone and only FGFR1c were stimulated by addition of FGF21 (open bar) or PBS (filled bar) used as a control in the presence of heparin, and they were then cultured for 42 hours. Thereafter, tritium-labeled thymidine was added to the culture solution, and the culture was further continued for 6 hours. Thereafter, the amount of thymidine incorporated into the cells was measured, so as to evaluate DNA synthesis. A DNA synthesis value obtained when the cells were not stimulated with FGF21 was defined as 1, and the ratio of a DNA synthesis value obtained by stimulating with FGF21 to the aforementioned DNA synthesis value was expressed using magnification. […]

[2] = test system: adipocytes differentiated from 3T3-L1 cells; experiment: GLUT1 mRNA expression in 3T3-L1 cells differentiated into adipocytes; conditions: various concentrations, 6 hours
Description: It has been reported that FGF21 allows adipocytes to increasingly express glucose transporter 1 (GLUT1). In the present example, as cultured adipocytes, there were used 3T3-L1 cells that are fibroblasts having the ability to differentiate into adipocytes by controlling culture conditions. The cells were cultured in a culture solution of a Dulbecco's modified Eagle medium (DMEM) containing 10% fetal bovine serum (FBS), so as to prepare cells maintaining an undifferentiated property as fibroblasts. The prepared cells were cultured in a test system, and they were allowed to grow to a confluent state. The cells were then left for 2 days. Thereafter, the culture solution was exchanged with DMEM as a culture solution used for differentiation induction, which comprised 10% FBS, 0.25 μM dexamethasone, 0.5 mM methyl isobutyl xanthine, and 5 μg/ml insulin. The cells were cultured for 2 days. […] The term “cells having the properties of adipocytes” is used herein to mean cells, which conduct intracellular metabolism specific to adipocytes and have cytoplasm in which large quantities of fat droplets are accumulated.
FGF21 were added in various types of concentrations to such different types of culture solutions, and the cells were further culture for 6 hours. Thereafter, RNA was extracted, and the copy number of GLUT1 was counted.

[3] = biological target: T2, FGFR1c-expressing BaF3 cells (Mus musculus, UniProt P16092); experiment: DNA synthesis (thymidine incorporation) in BaF3 cells expressing only FGFR1c; conditions: BaF3 cells expressing FGFR1c but not betaKlotho
T2 construct: the entire-length cDNA of mouse FGFR1c had been cloned; expressed in transfected cells; host or cells: BaF3 (mouse pro-B) cells
Description: as §1, with “10.) […]” for “10.)”
Immediately after inoculation, BaF3 cells that had expressed each clone and only FGFR1c were stimulated by addition of FGF21 (open bar) or PBS (filled bar) used as a control in the presence of heparin, and they were then cultured for 42 hours. […] Thereafter, the amount of thymidine incorporated into the cells was measured, so as to evaluate DNA synthesis. […]

T1 sequence (P16092 22-822): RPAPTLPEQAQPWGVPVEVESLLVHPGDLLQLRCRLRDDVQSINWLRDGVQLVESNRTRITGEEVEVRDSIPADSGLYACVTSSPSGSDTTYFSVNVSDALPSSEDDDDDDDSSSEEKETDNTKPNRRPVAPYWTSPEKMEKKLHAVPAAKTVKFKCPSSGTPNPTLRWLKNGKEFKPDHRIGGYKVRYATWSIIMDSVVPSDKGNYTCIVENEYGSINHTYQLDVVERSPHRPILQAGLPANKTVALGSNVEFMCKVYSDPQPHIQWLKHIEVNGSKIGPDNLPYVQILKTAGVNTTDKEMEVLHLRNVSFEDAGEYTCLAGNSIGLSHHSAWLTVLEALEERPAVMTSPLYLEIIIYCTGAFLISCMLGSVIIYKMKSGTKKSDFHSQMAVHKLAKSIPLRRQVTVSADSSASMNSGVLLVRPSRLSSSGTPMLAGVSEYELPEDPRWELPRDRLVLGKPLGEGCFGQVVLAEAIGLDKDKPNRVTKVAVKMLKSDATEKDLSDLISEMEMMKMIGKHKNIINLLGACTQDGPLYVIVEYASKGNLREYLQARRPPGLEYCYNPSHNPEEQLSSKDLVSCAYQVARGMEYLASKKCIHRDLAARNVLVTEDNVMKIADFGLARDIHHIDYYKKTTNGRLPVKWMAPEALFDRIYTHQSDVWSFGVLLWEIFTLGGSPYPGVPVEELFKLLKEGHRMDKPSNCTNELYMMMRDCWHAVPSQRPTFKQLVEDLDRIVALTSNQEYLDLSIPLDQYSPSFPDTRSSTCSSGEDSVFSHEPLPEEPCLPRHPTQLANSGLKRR
T1 sequence (Q99N32 whole entry): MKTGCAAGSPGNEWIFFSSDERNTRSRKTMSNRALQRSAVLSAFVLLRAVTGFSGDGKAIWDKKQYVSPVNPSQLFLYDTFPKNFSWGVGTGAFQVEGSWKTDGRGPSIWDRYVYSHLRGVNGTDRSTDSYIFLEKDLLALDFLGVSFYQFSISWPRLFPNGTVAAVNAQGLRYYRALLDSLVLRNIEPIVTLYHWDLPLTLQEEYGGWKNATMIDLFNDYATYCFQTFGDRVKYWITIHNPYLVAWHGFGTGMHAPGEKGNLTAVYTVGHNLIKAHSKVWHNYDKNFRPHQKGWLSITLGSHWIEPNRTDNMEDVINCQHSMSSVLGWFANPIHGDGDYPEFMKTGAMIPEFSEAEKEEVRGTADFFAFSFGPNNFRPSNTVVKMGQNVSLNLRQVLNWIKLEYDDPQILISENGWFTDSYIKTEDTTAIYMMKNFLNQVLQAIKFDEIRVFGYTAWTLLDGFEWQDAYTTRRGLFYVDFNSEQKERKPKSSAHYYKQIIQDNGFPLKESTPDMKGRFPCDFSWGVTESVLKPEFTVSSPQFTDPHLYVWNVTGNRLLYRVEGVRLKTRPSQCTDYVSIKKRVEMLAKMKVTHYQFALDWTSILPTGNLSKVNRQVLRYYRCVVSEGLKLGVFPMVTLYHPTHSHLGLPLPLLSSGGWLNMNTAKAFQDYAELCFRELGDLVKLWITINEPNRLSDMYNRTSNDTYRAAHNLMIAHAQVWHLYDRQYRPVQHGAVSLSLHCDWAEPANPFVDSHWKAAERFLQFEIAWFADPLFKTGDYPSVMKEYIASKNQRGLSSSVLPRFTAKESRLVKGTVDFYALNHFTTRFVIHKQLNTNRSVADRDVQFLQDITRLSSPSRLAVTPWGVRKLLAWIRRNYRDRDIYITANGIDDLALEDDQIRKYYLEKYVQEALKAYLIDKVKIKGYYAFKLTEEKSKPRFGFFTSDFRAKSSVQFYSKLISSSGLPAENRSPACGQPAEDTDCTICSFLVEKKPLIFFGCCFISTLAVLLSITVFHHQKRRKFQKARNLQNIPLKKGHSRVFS
T2 sequence (P16092 22-822): as the sequence (P16092 22-822) above

Molecule | DNA synthesis (thymidine incorporated into the cells) [1] | expression level of GLUT1 mRNA [2] | DNA synthesis (thymidine incorporated into the cells) [3]
FGF1: conventional FGF used as a control | reacts with all of the receptors |  | 
B1 | reacted with FGF21; also recorded: dose-dependently stimulate DNA synthesis; also recorded: activates; also recorded: able to act on FGFR1c-expressing cells | increased | did not react with FGF21
